Assays:
[1] = biological target: T1, human NKG2D expressed on cells (primary human NK cells); EL4 mouse lymphoma cell lines engineered to express … (human, UniProt P26718 1-216); test: flow cytometry on primary human NK cells
T1 construct: whole, on cells; also called NKG2D expressed on EL4 cells; NKG2D on primary human NK cells
T1 sequence (looked up): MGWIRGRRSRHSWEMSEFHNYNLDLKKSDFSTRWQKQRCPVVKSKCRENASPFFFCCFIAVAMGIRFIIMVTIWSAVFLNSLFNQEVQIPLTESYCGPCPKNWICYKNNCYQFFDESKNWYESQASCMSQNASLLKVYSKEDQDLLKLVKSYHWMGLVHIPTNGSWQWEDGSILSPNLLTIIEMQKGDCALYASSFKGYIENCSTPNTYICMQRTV
Description: Primary human NK cells and EL4 mouse lymphoma cell lines engineered to express human NKG2D were used to test binding affinity of trispecific binding proteins (TriNKETs) to NKG2D. Each of the TriNKETs tested contains an NKG2D-binding domain, a tumor-associated antigen binding domain (e.g., a 5T4-binding domain), and an Fc domain that binds to CD16 as shown in FIG. 1. TriNKETs were diluted to 20 μg/mL, and then diluted serially. The binding of the TriNKETs or the parental anti-5T4 monoclonal antibodies to NKG2D were detected using fluorophore-conjugated anti-human IgG secondary antibodies. Cells were analyzed by flow cytometry, and fold-over-background (FOB) was calculated by normalizing the mean fluorescence intensity (MFI) to human recombinant IgG1 staining control.

[2] = biological target: T2, 5T4 expressed on human cancer cell lines (human, UniProt Q13641 32-420); test: flow cytometry on 5T4-expressing human cancer cell lines
T2 construct: the assays used endogenous 5T4 on BxPC3, H146, H1975, HCT116, MCF7 and N87 cells; also called tumor-associated 5T4 antigen; human trophoblast glycoprotein 5T4
T2 sequence: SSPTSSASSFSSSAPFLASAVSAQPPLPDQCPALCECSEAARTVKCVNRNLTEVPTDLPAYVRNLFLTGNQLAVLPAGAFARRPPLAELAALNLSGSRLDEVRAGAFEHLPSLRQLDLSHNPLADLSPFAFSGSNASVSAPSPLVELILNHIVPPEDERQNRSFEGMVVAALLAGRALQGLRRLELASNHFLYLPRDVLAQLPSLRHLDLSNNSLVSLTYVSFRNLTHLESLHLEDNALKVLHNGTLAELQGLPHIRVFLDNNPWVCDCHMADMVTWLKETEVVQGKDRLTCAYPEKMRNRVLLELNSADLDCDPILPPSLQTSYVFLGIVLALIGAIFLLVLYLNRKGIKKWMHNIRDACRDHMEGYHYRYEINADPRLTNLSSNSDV
Description: (§1) Human cancer cell lines (BxPC3, H146, H1975, HCT116, MCF7 and N87) expressing the tumor-associated 5T4 antigen were used to assay the binding of 5T4-targeting TriNKETs to the antigen. In separate experiments, the TriNKETs or the parental anti-5T4 monoclonal antibodies were incubated with the each of the cell lines, and the binding of the TriNKETs or anti-5T4 monoclonal antibodies to the cells was detected using fluorophore-conjugated anti-human IgG secondary antibodies. Flow cytometry was used to analyze the binding of the TriNKETs or anti-5T4 monoclonal antibodies to the cells, and fold-over-background (FOB) was calculated by normalizing the mean fluorescence intensity (MFI) to human recombinant IgG1 staining control.

[3] = biological target: T2, 5T4 expressed on human cancer cell lines; test: flow cytometry on BxPC3 cells
Description: as §1

B1: anti-5T4 monoclonal antibody 5T4R (antibody, V domains shown)
VH: EVHLLESGGGLVHPGGSLRLSCAASGFTFRSDAMHWVRQAPGKGLEWVSGVSGSGGSPYYADSVKGRFTISRDDSKTTLYLQMNSLRAEDTAVYYCATGGSIAGSYYYYPMDVWGQGTTVTVSS
VL: DIQMTQSPSSLSASVGDRVTITCQASQDISNYLNWYQQKPGKAPKLLIYAASTLQIGVPSRFSGSGSGTDFTFTISSLQPEDFATYYCQQANSFPLTFGGGTKVEIK
notes: detected with anti-human IgG secondary antibody; also called parental anti-5T4R monoclonal antibody; 5T4 monoclonal antibody (mAb)
- binding result [1]: no binding
- binding result [2]: binds

B2: anti-5T4 monoclonal antibody 5T4A (antibody, V domains shown)
VH: EVQLVESGGGLVQPGGSLRLSCAASGFTFSNYWMNWVRQAPGKGLEWVGEIRLKSDKYATYYAESVKGRFTISRDDSKNSLYLQMNNLKTEDTGVYYCARRRGYYGSAYGMDYWGQGTLVTVSS
VL: DIQMTQSPSSLSASVGDRVTITCKASQDINSYLSWFQQKPGKAPKILIYRANRLVDGVPSRFSGSGSGKDFTFTISSLQPEDIATYYCLQYDFLPLTFGGGTKVEIK
notes: detected with anti-human IgG secondary antibody; also called 5T4 monoclonal antibody (mAb)
- binding result [3]: binds
- binding result [1]: no binding

— patent US20200157226A1 (DRAGONFLY THERAPEUTICS, published 2020)
